Data on 41 sequences can be found in the nanobody polyreactivity screen of Harvey et al. (2022).

The data set can be described thus: yeast display, Sf9 membrane polyspecificity reagent, FACS + sequencing; frameworks hold sequencing errors. The method, boiled down:
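After 36–48 hours of galactose induction, yeast (Saccharomyces cerevisiae BJ5465) displaying a synthetic nanobody library were stained at 4 °C for 1 hour with 10% biotinylated, detergent-solubilized Sf9 membrane reagent. Streptavidin microbeads enriched the stained cells before FACS sorting into low and high (top ~1%) gates on anti-HA and streptavidin fluorescence. Each clone's polyreactivity label reflects its gate of origin.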
As to “QVQLVESGGGLVQAGGSLRLSCAASGRIFDLYTMGWYRQAPGKERELVAAIRWSDGSTYYADSVKGRFTISRDNAKNTVYLQMNSLKPEDTAVYYCNRDPPRVLWYYLLSDSKLDSWGQGTQVTVSS”, the “polyreactivity (PSR sort gate)” value was “low polyreactivity”.
In the case of “QVQLVESGGGLVQAGGSLRLSCAASGNTSAVYAMGWYRQAPGKERELVASITWSDGITYYADSVKGRFTISRDNAKNTVYLQMNSLKPEDTAVYYCAKSTLYSVEYDYWGEGTQVTVSS”, the “polyreactivity (PSR sort gate)” value was “low polyreactivity”.
As for “QVQLQESGGGLVQAGGSLRLGCAASGNISDAGYMGWYRQAPGKEREFVAAIAAGSTTNYADSVKGRFTISRDNAKNTVYLQMNSLKPEDTAVFYCAVASYARVQFEYWGQGTQVTVNS”, the entry is “low polyreactivity”; as for “QVQLVESGGGLVEAGGSLRLSCAASGSTFTYYAMGWFRPAPGKERELVAAISSSGTSTYYADSVKGRFTLSRDNEKNTVSLQLNSLKPEDPAVYYCAADYYHTRGEADYEYAYWGKGTQVTVSS”, “low polyreactivity”; as for “QVQLVESGGGLVQAGGSLRLSCAASGSIFYVNAMGWNRQPPGKERELVAGITSGGRTNYADSVKGRFTISRDNAKNSVYLQMNSLKPEDTAVYYCATEIRITGLYRYDYWGQGTQVTVSS”, “low polyreactivity”.
For the sequence “QVQREESGGGLVQAGGSLRLSCAASGFIFDNNAMGWYRQAPGKERELVAAISSADSTNYADSEKGRFSISRDNAKNTVYLQMNSLKPEDTAVYSCNRSQGGEKGWFHYDSWGQGTQVTVSS”, the “polyreactivity (PSR sort gate)” value was “low polyreactivity”.
With “QVQLVESGGGLVQAGGSLRLSCAASGSTFSFYAMGWYRQAPGKERELVAAISRSGGRTYYADSVKGRFTISRDNAKNTVYLQMNSLKPEDTAVYYCAVEVTHYIHYYYWGQGNQVTVSS”, the “polyreactivity (PSR sort gate)” value was “high polyreactivity”.
“QVQLVESGGGLVQAGGSLRLSCAASGFTFSRYAMGWYRQAPGKEREYVAAISWSGGSTYYADSVKGRFTISRDNAKNTVYLQMNSLKPEDTAVYNCNAGAQLLASQTRYDYWGQGTQVTVSS”: the “polyreactivity (PSR sort gate)” value is “low polyreactivity”.
The entry for “QVQLVESGGGLVQAGGSLRLSCAASGRTLQWNAMGWYRQAPGKERELVATISSGGSTKYADSVKGRFTISRDNAKNTVYLQMNSLKPEDTAVYYCNAQPFGMYYHRYYYWGQGTQVTVSS” is “low polyreactivity”; for “QVQLQESGGGLVQAGGSQRLSCAASGNISVTGFMGCYRQAPGKERELVASIGIGGTTYYADSVKGRFSISRDNEKNTVYLQMNSLKPEDTAVYYCAARYLYYAYSYWGQGTQVTVSS” it is “low polyreactivity”.
Take “QVQLVESGGGLVQAGGSLRLSCAASGSTFIYYAMGWYRQAPGKERELVAAISKRGGNTYYADSVKGRFTISRDNAKNTVYLQMNSLKPEDTAVYYCAARVYGTSRRYYSWGQGTQVTVSS”: the “polyreactivity (PSR sort gate)” value is “high polyreactivity”.
In the case of “QVQLVESGGGLVQAGGILRLSCAASGRTFGRNAMGWYRQAQGKERELVAGISIGGGTTYYADSVKGRFTISRDNAKNTVYLQMNSLKPEDTAVYYCAARSWSYLHRYGYWGQGTLVTVSS”, the “polyreactivity (PSR sort gate)” value was “high polyreactivity”.
Turning to “QVQLVESGGGLDQAGGSLRLSCAASGIFGVNTMGWYRQAPGKERELVASITSGGSTNYADSVKGRFTISRDNAKNTVYLQMNSLKPEDTAVYYCAAGLYLQGPFDYWGQGTQVTVSS”, the “polyreactivity (PSR sort gate)” value is “low polyreactivity”.
The entry for “QVQLVESGGGLVQAGGSLRVSCAASGSTFTGYAMGWYRQAPGKERELVAAISRGGSTNYADSVKGRFTISRDNAKNTVYLQMNSLKPEDTAVYYCAAETYYFGYGYWGQGTQVTVSS” is “high polyreactivity”; for “QVQLVESGGGLVQAGGSLRLSCAASGSIFSTNALGWYRQAPGKERELVAGITRSGGRTYYADSVKGRFTISRDTAKNTVYLQMNSLKPEDTAVYYCTAVRPHRYYSWGQGSQVTVSS” it is “high polyreactivity”; for “QVQLVESGGGLVQAGGSLRLSCAASGSIFTRYAMGWYRQAPGKERELVAVISVSGGRTYYADSVKGRFTISRDNAKNTVYLQMNSLKPEDTAVYYCATDYYRPALDYWGQGTQVTVSS” it is “high polyreactivity”.
In the case of “QVQLVESGGRLVQAGGSLRLTCAASGFIFKTNGMRWYRKAPGKERELVAAITSRGGSTYYADSVKGRFTISRDNAKNNVYLQMNSLKPEDTAVYYCAARGSRYTDYDYWGQGTHVTVSS”, the “polyreactivity (PSR sort gate)” value is “high polyreactivity”.
As to “QVQLVESGGGLVQAGGSLRLSCAASGSTFGTYAMGCYRQAPGKARELVAAISGRGTSTYYADSVKGRFTISRDNAKITVYLQMNSLKPEDTAVYYCNAVFWSRSSHFDYWGQGTQVTVSS”, the “polyreactivity (PSR sort gate)” value was “high polyreactivity”.
For the sequence “QVQLVESGGGLVQAGGSLRLSCAASGFTFSYYSMGRYRQAPGKERELVARISFSGTRTYYADSVKGRFTISRDNAKNTVYLQMNSLKPEDTAVYYCARRYRDYGRYGYWGQGTQVTVSS”, the “polyreactivity (PSR sort gate)” value is “high polyreactivity”.
“QVQLVESGGGLVQAGGSLRFSCADSGRILSLYAMGWSRQAPGKERELVASINWSDGSTYYADSVKGRFTISRDKAKNTVYLQMNSLKPEDTAVYYCNVDVRSYVAGYDYWGQGTLVTVSS”: the “polyreactivity (PSR sort gate)” value is listed as “low polyreactivity”.
As for “QVQLVESGGGLVPAGGSLRLSCAASGFTFRRYDMGWYRHAPGKERELVAAISWSSDGTYYADSVKGRFTISRDNAKNTVYLQINSLKPEDTAVYYCAARWGTKSGRYDYWGQGTQVTVSS”, the entry is “high polyreactivity”.
On to “QVQLVESGGGLVQAGGSLRLSCAASGRTIGPYVMGWYRQAPGKERELVAAITYIGDRTYYADSVKGRFTISRDNAKNTVYLQMNSLKPEDTAVYYCNADFFSRWGYRYMDYWGQGTQVTVSS”, for which the “polyreactivity (PSR sort gate)” value is “low polyreactivity”.
As for “QVQLVESGGGLVQAGGSLRLSCAASGRTFWYYAMGWYRQAPGKERELVASISASGGSTFYADSVKGRFSISRDHAKNTVYLQMNSLKPEDTAVYYCAAKNAVWRRYEYWGQGTQVTVSS”, the “polyreactivity (PSR sort gate)” value was “high polyreactivity”.
On to “QVLLQESGGRLVQAGGSLRLGCEPSGTISPAYYMGRYHQAPGKEREFVAAITYGTNTYYADSVKGRCTISRDIAKNTVYLQMNSLKPEDSAVYYCSATAGYNGAHDYCGQGTQVTVSS”, for which the “polyreactivity (PSR sort gate)” value is on record as “low polyreactivity”.
Take “QVQLVESGGGLVQAGGSLRLSCAASGSTYVQYAMGWYRKAPGKERELVPVISYSGGSTYYADSVKGRFTISRDNAKNTVYLQMNSLKPEDTAVYYCAAVYGGGHRKMDYWGQGTQVTVSS”: the “polyreactivity (PSR sort gate)” value is recorded as “low polyreactivity”.
For the sequence “QVQLVESGGGLVQAGGSLRLSCAASGRIKDNVMGWYRQAPGKERELVAAITRSAGRTYYADSVKGRFTISRDNAKNTVYLQMNSLKPEDTAVYYCAAQAERYGYEYWGQGTQVTVSS”, the “polyreactivity (PSR sort gate)” value is “low polyreactivity”.
“QVQLVESGGGLVQAGGSLRLSCSASGSIFPKNAMGWYRQAPGKERELVARISGSGGSTYYADSVKGRFTISRDNAKNTVYLQMNSLKPEDTAVYYCAKDQSKIYSSWSGYYYWGQGTQVTVSS”: the “polyreactivity (PSR sort gate)” value is “low polyreactivity”.
“QVQLVESGGGLVQAGGSLRLSCAASGIIFRYYAMGWYRQAPGKEREFVAAITWRGTSTYYADSVKGRFTISRDNAKNTVYLQMNSLKPEDTAVYYCATATAFPYYGLDYWGQGNQVTVSS”: the “polyreactivity (PSR sort gate)” value is “high polyreactivity”.
As to “QVQLVESGGGLVQAGGSLRLSCAASGSTFWKYAMGWYRQAPGKEREFVAAITRSGGNTYYADSVKGRFTISRDNAKNTVYLQMNSLKPEDTALYYCAIVYKLITSYRGFGYWGQGTQVTVSS”, the “polyreactivity (PSR sort gate)” value is “high polyreactivity”.
In the case of “QVQLVESGGGLVQAGGSLRLSCAASGRTFGVNAMGWYRQAPGKERELVAAINWSADRTYYADSVKGRFTISRDNAKNTVYLQMNSLKPEDTAVYYCAVTQRWYWSYYGSDPSQYGYWGQGTQVTVSS”, the “polyreactivity (PSR sort gate)” value is recorded as “low polyreactivity”.
For “QLQLVESAAGLFQAGVSHRLSCDASGSTLSQNSMGGYRQAPGKEREFVADISGSGDSTYYADSVKGRFTISRDNAKNTVYLQMNSLKAEDTAVYYCATPSPHVGLKWEYDYWGQGTQVTVSS”, the “polyreactivity (PSR sort gate)” value was “low polyreactivity”.
The entry for “QVQLVESGGGLDQAGGSLRLSWAASGFTFKNYTMGWYRQAPGKERELVAAISKSGDITYYADSVKGRFTISRDNAKNTVYLQMNSLKPEDTAVYYCNAPRRNWSYDYWGQGTQVTVSS” is “high polyreactivity”; for “QVQLVESGGCLDQAGGSLRLSWDASGRTFDFNAIGWYRQAPGKERELVAAITHSAGRTYYADSVKGRFTLSRDIAKNTVYLQMNSLKREDTAVYYCATRYYNYARTSYGYWGQGTQVTVSS” it is “high polyreactivity”.
In the case of “QVQLVESGGGLVQAGGSLRLSCAASGRTFTYYAMGWYRRAPGKERELVAAIRWTGDSTYYADSVKGRFTISRDNAKNTVYLQMNSLKPEHTAVYYCATQARWQYDGGIRWYYYWGQGTQVTVSS”, the “polyreactivity (PSR sort gate)” value is listed as “high polyreactivity”.
For “QVQLVESGGRLVQAGGSLRLSCAASGSTFDENAMGWYRQAPGKERELVAAISRRGVSTYYADSVKGRFTISRDNEKNTVYLQMNSVKPEDTAVYYCARRYGGVGMYYWGQGTQVTVSS”, the “polyreactivity (PSR sort gate)” value is recorded as “high polyreactivity”.
As for “QVQLVESGGGLVQAGGSLRLICAASGFTFFSYTMGWYRQAPGKERELVAAISKRGSRTYYADSVKGRFTISRDNAKNTVYLQMNSLKQEDTAVYYCAADSGPEVVHRREDYWGQGTQVTLSS”, the “polyreactivity (PSR sort gate)” value is recorded as “high polyreactivity”.
In the case of “QVQLVESGGGLVQAGGSLRLSCAASGIIFYRYTMGWYRQAPGKERELVAAITSGGDTNYADSVKGRFTISRDNAKNTVYLQMNSLKPEDTAVYYCNADWWWYLYLYDYWGQGTQVTVSS”, the “polyreactivity (PSR sort gate)” value is recorded as “high polyreactivity”.
The entry for “QVQLVESGGGLVQAGGSHRLSCAASGRTFEYNAMGWYRQAPGKERELVATITRASTNYADSVKGRFTISRDNAKNTVYLQMNSLKPEDTAVYYCNARARGRRYPYSKYYYWGQGTQVTVSS” is “high polyreactivity”; for “QVQLVESGGGLVQAGGSLRLSCAASGNIFYLNTMGWYRQAPGKERELVASITRSTGSTYYADSVKGRFTISRDNAKNTVYLQMNSLKPEDTAVYYCAADWSLNKTPRLKGYTFRDDYWGQGTQVTVTS” it is “low polyreactivity”; for “QVQLVESGGGLVQAGGSLRLSCAASGRTFGSYVMGWYRQAPGKERELVAAITTSGGRTYYADSVKGRFTISRDNAKNTVYLQMNSLKPEDTAVYYCAAVQLTPTTLYRYYSWGQGTQVTVSS” it is “high polyreactivity”.
The entry for “QVQLVESGGGLVQAGGSLRLSCAASGSIFKRYAMGWYRQAPGKERELVAAISWSGGNTYYADSVKGRFTISRDNAKNTVYLQMNSLKPEDTAVYYCAALHRVGYSEYGYWGQGTQVTVSS” is “high polyreactivity”.
